# Laboratory results reported in patent publication US20110086806A1 (published 2011).
# T1: recombinant human IL-23R/Fc chimera (R&D Systems) (human, UniProt Q5VWK5 24-355)
# T1 construct: Bought; also called rhIL23RFc
# T1 sequence (looked up): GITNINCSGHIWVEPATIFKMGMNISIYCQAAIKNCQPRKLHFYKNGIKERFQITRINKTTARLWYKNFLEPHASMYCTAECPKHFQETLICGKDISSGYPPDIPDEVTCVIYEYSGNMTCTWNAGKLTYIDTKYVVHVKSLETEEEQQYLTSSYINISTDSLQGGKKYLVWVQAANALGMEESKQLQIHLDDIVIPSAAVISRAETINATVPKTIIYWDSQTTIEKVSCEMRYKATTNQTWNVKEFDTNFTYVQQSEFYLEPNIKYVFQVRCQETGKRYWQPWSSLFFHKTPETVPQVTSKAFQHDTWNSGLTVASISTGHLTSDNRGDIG
# B1: 105-08-1B1 ATRIMER complex (designed binder)
# chain: EPPTQKPKKIVNAKKDVVNTKMFEELKSRLDTLAQEVALLKEQQALQTVCLKGTKVHMKCFLAFTQTKTFHEASEDCISRGGTLSTPQTGSENDALYEYLRQSVGNEAEIWLGLNGSPRTQTWVDMTGARIAYKNWETEITAQPDGGFGYFGENCAVLSGAANGKWFDKRCRDQLPYICQFGIV
# modifications: ATRIMER complex: homotrimer of three copies of this chain, joined by the tetranectin coiled coil
# notes: not shown: C-terminal tag: Myc/His (pANA4) or HA-StrepII (pANA10)
# B2: 105-08-1G2 ATRIMER complex (designed binder)
# chain: EPPTQKPKKIVNAKKDVVNTKMFEELKSRLDTLAQEVALLKEQQALQTVCLKGTKVHMKCFLAFTQTKTFHEASEDCISRGGTLSTPQTGSENDALYEYLRQSVGNEAEIWLGLNGSSKTNTWVDMTGARIAYKNWETEITAQPDGGWGYFGENCAVLSGAANGKWFDKRCRDQLPYICQFGIV
# B3: 105-08-1C10 ATRIMER complex (designed binder)
# chain: EPPTQKPKKIVNAKKDVVNTKMFEELKSRLDTLAQEVALLKEQQALQTVCLKGTKVHMKCFLAFTQTKTFHEASEDCISRGGTLSTPQTGSENDALYEYLRQSVGNEAEIWLGLNGSSVTNTWVDMTGARIAYKNWETEITAQPDGGWGYFGENCAVLSGAANGKWFDKRCRDQLPYICQFGIV
# B4: 105-08-1D2 ATRIMER complex (designed binder)
# chain: EPPTQKPKKIVNAKKDVVNTKMFEELKSRLDTLAQEVALLKEQQALQTVCLKGTKVHMKCFLAFTQTKTFHEASEDCISRGGTLSTPQTGSENDALYEYLRQSVGNEAEIWLGLNGSPVTDTWVDMTGARIAYKNWETEITAQPDGGFGYFGENCAVLSGAANGKWFDKRCRDQLPYICQFGIV
# notes: not shown: C-terminal tag: His/Myc (pANA4) or HA-StrepII (pANA10)
# B5: 105-08-2C6 ATRIMER complex (designed binder)
# chain: EPPTQKPKKIVNAKKDVVNTKMFEELKSRLDTLAQEVALLKEQQALQTVCLKGTKVHMKCFLAFTQTKTFHEASEDCISRGGTLSTPQTGSENDALYEYLRQSVGNEAEIWLGLNGSQRTDTWVDMTGARIAYKNWETEITAQPDGGWGYFGENCAVLSGAANGKWFDKRCRDQLPYICQFGIV
# B6: 105-08-1G9 ATRIMER complex (designed binder)
# chain: EPPTQKPKKIVNAKKDVVNTKMFEELKSRLDTLAQEVALLKEQQALQTVCLKGTKVHMKCFLAFTQTKTFHEASEDCISRGGTLSTPQTGSENDALYEYLRQSVGNEAEIWLGLNGSPKTDTWVDMTGARIAYKNWETEITAQPDGGFGYFGENCAVLSGAANGKWFDKRCRDQLPYICQFGIV
# B7: 105-08-1C9 ATRIMER complex (designed binder)
# chain: EPPTQKPKKIVNAKKDVVNTKMFEELKSRLDTLAQEVALLKEQQALQTVCLKGTKVHMKCFLAFTQTKTFHEASEDCISRGGTLSTPQTGSENDALYEYLRQSVGNEAEIWLGLNGSTLTDTWVDMTGARIAYKNWETEITAQPDGGFGYFGENCAVLSGAANGKWFDKRCRDQLPYICQFGIV
# B8: 105-08-1C3 ATRIMER complex (designed binder)
# chain: EPPTQKPKKIVNAKKDVVNTKMFEELKSRLDTLAQEVALLKEQQALQTVCLKGTKVHMKCFLAFTQTKTFHEASEDCISRGGTLSTPQTGSENDALYEYLRQSVGNEAEIWLGLNGSQLTDTWVDMTGARIAYKNWETEITAQPDGGWGYFGENCAVLSGAANGKWFDKRCRDQLPYICQFGIV
# B9: 105-08-1D10 ATRIMER complex (designed binder)
# chain: EPPTQKPKKIVNAKKDVVNTKMFEELKSRLDTLAQEVALLKEQQALQTVCLKGTKVHMKCFLAFTQTKTFHEASEDCISRGGTLSTPQTGSENDALYEYLRQSVGNEAEIWLGLNGSARTGTWVDMTGARIAYKNWETEITAQPDGGWGYFGENCAVLSGAANGKWFDKRCRDQLPYICQFGIV
# B10: 105-08-2C4 ATRIMER complex (designed binder)
# chain: EPPTQKPKKIVNAKKDVVNTKMFEELKSRLDTLAQEVALLKEQQALQTVCLKGTKVHMKCFLAFTQTKTFHEASEDCISRGGTLSTPQTGSENDALYEYLRQSVGNEAEIWLGLNGSLLTNTWVDMTGARIAYKNWETEITAQPDGGFGYFGENCAVLSGAANGKWFDKRCRDQLPYICQFGIV
# modifications: ATRIMER complex: homotrimer of three copies of this chain, joined by the tetranectin coiled coil
# notes: as for B1
# B11: 105-08-1B10 ATRIMER complex (designed binder)
# chain: EPPTQKPKKIVNAKKDVVNTKMFEELKSRLDTLAQEVALLKEQQALQTVCLKGTKVHMKCFLAFTQTKTFHEASEDCISRGGTLSTPQTGSENDALYEYLRQSVGNEAEIWLGLNGSRHTDTWVDMTGARIAYKNWETEITAQPDGGFGYFGENCAVLSGAANGKWFDKRCRDQLPYICQFGIV
# notes: as for B4
# B12: 105-08-1D1 ATRIMER complex (designed binder, not shown: small tags and cut ends)
# chain: EPPTQKPKKIVNAKKDVVNTKMFEELKSRLDTLAQEVALLKEQQALQTVCLKGTKVHMKCFLAFTQTKTFHEASEDCISRGGTLSTPQTGSENDALYEYLRQSVGNEAEIWLGLNGSALTDTWVDMTGARIAYKNWETEITAQPDGGWGYFGENCAVLSGAANGKWFDKRCRDQLPYICQFGIV
# B13: 105-08-1B7 ATRIMER complex (designed binder)
# chain: EPPTQKPKKIVNAKKDVVNTKMFEELKSRLDTLAQEVALLKEQQALQTVCLKGTKVHMKCFLAFTQTKTFHEASEDCISRGGTLSTPQTGSENDALYEYLRQSVGNEAEIWLGLNGSPRTDTWVDMTGARIAYKNWETEITAQPDGGFGYFGENCAVLSGAANGKWFDKRCRDQLPYICQFGIV
# B14: 105-08-2C1 ATRIMER complex (designed binder, not shown: small tags and cut ends)
# chain: EPPTQKPKKIVNAKKDVVNTKMFEELKSRLDTLAQEVALLKEQQALQTVCLKGTKVHMKCFLAFTQTKTFHEASEDCISRGGTLSTPQTGSENDALYEYLRQSVGNEAEIWLGLNGSSLTDTWVDMTGARIAYKNWETEITAQPDGGWGYFGENCAVLSGAANGKWFDKRCRDQLPYICQFGIV
# B15: 105-08-2A1 ATRIMER complex (designed binder)
# chain: EPPTQKPKKIVNAKKDVVNTKMFEELKSRLDTLAQEVALLKEQQALQTVCLKGTKVHMKCFLAFTQTKTFHEASEDCISRGGTLSTPQTGSENDALYEYLRQSVGNEAEIWLGLNGSMRTDTWVDMTGARIAYKNWETEITAQPDGGWGYFGENCAVLSGAANGKWFDKRCRDQLPYICQFGIV
# B16: 105-08-2B3 ATRIMER complex (designed binder, not shown: small tags and cut ends)
# chain: EPPTQKPKKIVNAKKDVVNTKMFEELKSRLDTLAQEVALLKEQQALQTVCLKGTKVHMKCFLAFTQTKTFHEASEDCISRGGTLSTPQTGSENDALYEYLRQSVGNEAEIWLGLNGSAITNTWVDMTGARIAYKNWETEITAQPDGGWGYFGENCAVLSGAANGKWFDKRCRDQLPYICQFGIV
# B17: 105-08-1C2 ATRIMER complex (designed binder)
# chain: EPPTQKPKKIVNAKKDVVNTKMFEELKSRLDTLAQEVALLKEQQALQTVCLKGTKVHMKCFLAFTQTKTFHEASEDCISRGGTLSTPQTGSENDALYEYLRQSVGNEAEIWLGLNGSRATDTWVDMTGARIAYKNWETEITAQPDGGFGYFGENCAVLSGAANGKWFDKRCRDQLPYICQFGIV
# B18: 105-08-1C6 ATRIMER complex (designed binder)
# chain: EPPTQKPKKIVNAKKDVVNTKMFEELKSRLDTLAQEVALLKEQQALQTVCLKGTKVHMKCFLAFTQTKTFHEASEDCISRGGTLSTPQTGSENDALYEYLRQSVGNEAEIWLGLNGSALTDTWVDMTGARIAYKNWETEITAQPDGGFGYFGENCAVLSGAANGKWFDKRCRDQLPYICQFGIV
# B19: 105-08-1C11 ATRIMER complex (designed binder)
# chain: EPPTQKPKKIVNAKKDVVNTKMFEELKSRLDTLAQEVALLKEQQALQTVCLKGTKVHMKCFLAFTQTKTFHEASEDCISRGGTLSTPQTGSENDALYEYLRQSVGNEAEIWLGLNGSSRTDTWVDMTGARIAYKNWETEITAQPDGGFGYFGENCAVLSGAANGKWFDKRCRDQLPYICQFGIV
# modifications: ATRIMER complex: homotrimer of three copies of this chain, joined by the tetranectin coiled coil
# notes: as for B1
# B20: 105-08-1C4 ATRIMER complex (designed binder, not shown: small tags and cut ends)
# chain: EPPTQKPKKIVNAKKDVVNTKMFEELKSRLDTLAQEVALLKEQQALQTVCLKGTKVHMKCFLAFTQTKTFHEASEDCISRGGTLSTPQTGSENDALYEYLRQSVGNEAEIWLGLNGSTLTDTWVDMTGARIAYKNWETEITAQPDGGWGYFGENCAVLSGAANGKWFDKRCRDQLPYICQFGIV
# B21: 105-08-1D12 ATRIMER complex (designed binder)
# chain: EPPTQKPKKIVNAKKDVVNTKMFEELKSRLDTLAQEVALLKEQQALQTVCLKGTKVHMKCFLAFTQTKTFHEASEDCISRGGTLSTPQTGSENDALYEYLRQSVGNEAEIWLGLNGSVLTDTWVDMTGARIAYKNWETEITAQPDGGFGYFGENCAVLSGAANGKWFDKRCRDQLPYICQFGIV
# notes: as for B4
# B22: 105-08-1G12 ATRIMER complex (designed binder)
# chain: EPPTQKPKKIVNAKKDVVNTKMFEELKSRLDTLAQEVALLKEQQALQTVCLKGTKVHMKCFLAFTQTKTFHEASEDCISRGGTLSTPQTGSENDALYEYLRQSVGNEAEIWLGLNGSLRTGTWVDMTGARIAYKNWETEITAQPDGGWGYFGENCAVLSGAANGKWFDKRCRDQLPYICQFGIV
# modifications: Homotrimer (ATRIMER complex) of the one chain given.
# Target: T1, recombinant human IL-23R/Fc chimera …
# Assay: competition ELISA vs IL-23
# Procedure: Assays were performed generally as follows. Individual wells in Immulon HB2 plates were incubated overnight at 4° C. with 100 μL PBS containing 100 ng of an anti-human IgG Fc (R&D MAB 110 clone 97924). Plates were washed five times with PBS/0.05% Tween 20, and wells were incubated for 1.5 h at RT with 100 μL each of PBS containing 50 ng of recombinant human IL-23R/Fc. […] Competitor was included at a final concentration of 1 μg/mL. After incubation, plates were washed as described and wells were incubated for 40 min at RT with 100 μL each of PBS containing a 1:5000 dilution of streptavidin-HRP conjugate (Pierce catalog no. 21130). After washing, wells were incubated with 100 μL each of TMB (BioFX Lab catalog no. TMBH-1000-0) for up to 30 min at RT. Reactions were stopped with an equal volume of 0.2 M sulfuric acid.
row,Ratio IC50 to 056-53.H4E IC50,Binder
1,3.3,B1
2,5.5,B2
3,5,B3
4,4.3,B4
5,3.6,B5
6,2.4,B6
7,7.4,B7
8,3.6,B8
9,5.5,B9
10,2.9,B10
11,4.7,B11
12,3.6,B12
13,4.1,B13
14,3.6,B14
15,5,B15
16,3.4,B16
17,4.1,B17
18,2,B18
19,2.8,B19
20,3.3,B20
21,4.6,B21
22,13.2,B22
